In PMC5102900, “ROS-Mediated Inhibition of S-nitrosoglutathione Reductase Contributes to the Activation of Anti-oxidative Mechanisms” (Frontiers in Plant Science, 2016):

B1: Arabidopsis thaliana S-nitrosoglutathione reductase (GSNOR), recombinant His6-GSNOR, reduced (enzyme, UniProt Q96533 1-379, looked up)
chain: MATQGQVITCKAAVAYEPNKPLVIEDVQVAPPQAGEVRIKILYTALCHTDAYTWSGKDPEGLFPCILGHEAAGIVESVGEGVTEVQAGDHVIPCYQAECRECKFCKSGKTNLCGKVRSATGVGIMMNDRKSRFSVNGKPIYHFMGTSTFSQYTVVHDVSVAKIDPTAPLDKVCLLGCGVPTGLGAVWNTAKVEPGSNVAIFGLGTVGLAVAEGAKTAGASRIIGIDIDSKKYETAKKFGVNEFVNPKDHDKPIQEVIVDLTDGGVDYSFECIGNVSVMRAALECCHKGWGTSVIVGVAASGQEISTRPFQLVTGRVWKGTAFGGFKSRTQVPWLVEKYMNKEIKVDEYITHNLTLGEINKAFDLLHEGTCLRCVLDTSK
notes: S-nitrosoglutathione reductase (GSNOR; glutathione-dependent formaldehyde dehydrogenase, class III alcohol dehydrogenase), Arabidopsis thaliana, At5g43940; Expressed from pDEST17 (Gateway); Run in buffer with 10 mM DTT; also called AtGSNOR; GSNO-reductase; source: E. coli BL21 DE3 pLysS, purified (Ni-NTA under reducing condition, followed by Äkta purification); not shown: His6, N-terminal, kept
B2: Arabidopsis thaliana S-nitrosoglutathione reductase (GSNOR), recombinant His6-GSNOR, oxidized with 1 mM H2O2 (enzyme, UniProt Q96533 1-379, looked up)
chain: B1 chain
modifications: oxidized by 1 mM H2O2 (oxidative modifications of cysteine residues; which residues at this concentration is not stated)
notes: S-nitrosoglutathione reductase (GSNOR; glutathione-dependent formaldehyde dehydrogenase, class III alcohol dehydrogenase), Arabidopsis thaliana, At5g43940; Same construct as m1, treated with H2O2 (200 ug GSNOR, 1 mM H2O2) and run without DTT; Mass spectrometry at 0.5 and 5 mM H2O2 found reversible and sulfinic or sulfonic modifications on most detected cysteines, among them Cys47 and Cys177; also …

Target: the molecule itself
Experiment: SEC-MALS; size exclusion chromatography (Superdex 200 10/300 GL, 4°C) with static light scattering (right-angle, Viscotek TDA 305, 30°C); 50 mM Tris-HCl pH 8.0, 200 mM NaCl, with 10 mM DTT (reduced sample) or without (sample oxidized by 1 mM H2O2); approximately 1.5 mg/ml, 100 ul applied

Protein	stoichiometry N
B1	2
B2	2
